From the supplement of paper PMC9170038

System: MS2 coat protein
Assay: apparent KD of MS2 coat protein; designed switch direction (-1 OFF switch, 1 ON switch): -1; higher = weaker reporter binding
Summary of the method: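 The buffer was Tris-HCl pH 7.5 with KCl, MgCl2, BSA, DTT, tRNA and Tween-20. In it, SNAP-549-labelled MS2 coat protein was titrated in doubling steps from 0.7 or 1.5 nM to 3 µM over chip-bound RNA switches transcribed by stalled E. coli RNA polymerase on Illumina chips. Apparent KD is the per-design median over clusters of curve fits to normalised fluorescence.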

[1] = Eterna round: R95, input ligand: FMN 200 uM
[2] = Eterna round: R95, input ligand: microRNA oligo, concentration not stated
[3] = Eterna round: R95, input ligand: none

Row | Sequence | apparent KD of MS2 coat protein (input ligand: FMN 200 uM) [nM] | apparent KD of MS2 coat protein (input ligand: none) [nM] | apparent KD of MS2 coat protein [1] [nM] | apparent KD of MS2 coat protein [2] [nM] | apparent KD of MS2 coat protein [3] [nM]
1 | GAUAUGUAAGGAUAUCGUGCAAGUUUCAAAAGAGGCUUGUGCGAGAAGGUACAUGAGGAUCACCCAUGUAGGUU [Omei Ex4 B14] (Eterna round: R97, puzzle: Exclusion 4) | 116 | 29.6 | – | – | –
2 | GAUCAACAUGAGGAUCACCCAUGUGAGGAUAUAGACCUAAGGCGCAAGCUAUGGGACUCUAGAAGGCGCGGAAU [Eternabot (L2) Solution 93] (Eterna round: R97, puzzle: Exclusion 1) | 40 | 36.6 | – | – | –
3 | GAUCACUGAGGAUAUACACAGAUACAAAGUAUCUGAUUGUGACAUGAGGAUCACCCAUGUAGAAGGCAGAGGUC [Omei Ex2 B6] (Eterna round: R97, puzzle: Exclusion 2) | 179 | 31.1 | – | – | –
4 | GAUCAUGCAGGAUAUACAGUAUCCAUGAAAACAUGGAUCUCACAUGAGGAUCACCCAUGUAGAAGGGCAUGAUC [Omei Ex2 A25] (Eterna round: R97, puzzle: Exclusion 2) | 40.1 | 41.4 | – | – | –
5 | GAUCAUGCAGGAUAUACAUAAACCAUGAAAACAUGGCUCAAACAUGAGGAUCACCCAUGUAGAAGGGCAUGAUC [Omei Ex2 A19] (Eterna round: R97, puzzle: Exclusion 2) | 69.1 | 31.5 | – | – | –
6 | GAUCAUGCAGGAUAUACAUGGAACAUUAAAUCAUGAAUUUCACAUGAGGAUCACCCAUGUAGAAGGGCAUGAUC [Omei Ex2 A16] (Eterna round: R97, puzzle: Exclusion 2) | 32.5 | 31.6 | – | – | –
7 | GAUCAUGCAGGAUAUACAUUAACCAUGAAAACAUGGAUCAAACAUGAGGAUCACCCAUGUAGAAGGGCAUGAUC [Omei Ex2 A21] (Eterna round: R97, puzzle: Exclusion 2) | 46.6 | 25.9 | – | – | –
8 | GAUCCCAUUGUUAGGAUAUAUAGCCUAACGCGAGUGUAGAAGGGACAUGAGGAUCACCCAUGUGUGCAUUAGGG [Eternabot (L2) Solution 96] (Eterna round: R97, puzzle: Brourd's mod of Exclusion 4) | 37.2 | 43.8 | – | – | –
9 | GAUCCUUCUGUUAGGAUAUGCAACGGGCUUCCGCAGCAGAAGGAACAUGAGGAUCACCCAUGUCAAAUAAAAUC [JL-BMX4-4.36 ViennaUCT mod] (Eterna round: R97, puzzle: Brourd's mod of Exclusion 4) | 54.1 | 18.7 | – | – | –
10 | GAUGCUUCGGCAUCUACAAGCUUUUUGCUCGUCUUAUUAACAUGAGGAUCACCCAUGUUAAUGAGACCUCAUGUAUU [Sensor v3 - turn-off variant 2 - 7] (puzzle: Sensor v3, turn-off variant 2) | – | – | 13.5 | 14.9 | 11.1
11 | GAUUAACAUGAGGAUCACCCAUGUGAGGAUAUGGACUGGCUCACUUUUCGAUUCCCGUCUAGAAGGCACAUCUU [1986#10] (Eterna round: R97, puzzle: Exclusion 1) | 85.9 | 41.1 | – | – | –
12 | GAUUAACAUGAGGAUCACCCAUGUGAGGAUAUGGACUUGCCCACUUAACCAUUAGAGUCUAGAAGGCGCAUCUC [1986#28] (Eterna round: R97, puzzle: Exclusion 1) | 27.1 | 22.7 | – | – | –
13 | GAUUAUGCGAGCUUUAGGGACAUGAGGAUCACCCAUGUUCGUCUUAUUAGUCUAGAUACGCUGACAUACCUAAAUCU [JMF 96] (puzzle: Sensor v3, turn-off variant 1) | – | – | 14.5 | 18.5 | 15.8
14 | GAUUAUGCGAGCUUUAGGGACAUGAGGAUCACCCAUGUUCGUCUUAUUGAUCUAGGUACGCUAACAUACCUAAAUCU [Mod of one of jandersonlee's solutions 3] (puzzle: Sensor v3, turn-off variant 1) | – | – | 23 | 36.3 | 23
